Test results taken from patent US20060210570A1 (Genentech, published 2006).

B1: sHAI-1B(K401A) (other, human, UniProt O43278 36-465, looked up)
chain: GPPPAPPGLPAGADCLNSFTAGVPGFVLDTNASVSNGATFLESPTVRRGWDCVRACCTTQNCNLALVELQPDRGEDAIAACFLINCLYEQNFVCKFAPREGFINYLTREVYRSYRQLRTQGFGGSGIPKAWAGIDLKVQPQEPLVLKDVENTDWRLLRGDTDVRVERKDPNQVELWGLKEGTYLFQLTVTSSDHPEDTANVTVTVLSTKQTEDYCLASNKVGRCRGSFPRWYYDPTEQICKSFVYGGCLGNKNNYLREEECILACRGVQGGPLRGSSGAQATFPQGPSMERRHPVCSGTCQPTQFRCSNGCCIDSFLECDDTPNCPDASDEAACEKYTSGFDELQRIHFPSDKGHCVDLPDTGLCAESIPRWYYNPFSEHCARFTYGGCYGNKNNFEEEQQCLESCRGISKKDVFGLRREIPIPSTGSVE
B2: prostasin (recombinant human, soluble, active two-chain form purified from conditioned medium of CHO cells transfected with full-length prostasin) (enzyme)
chain: not shown
notes: also called purified prostasin; soluble prostasin
B3: sHAI-1B(R260A) (other, human, UniProt O43278 36-465, looked up)
chain: GPPPAPPGLPAGADCLNSFTAGVPGFVLDTNASVSNGATFLESPTVRRGWDCVRACCTTQNCNLALVELQPDRGEDAIAACFLINCLYEQNFVCKFAPREGFINYLTREVYRSYRQLRTQGFGGSGIPKAWAGIDLKVQPQEPLVLKDVENTDWRLLRGDTDVRVERKDPNQVELWGLKEGTYLFQLTVTSSDHPEDTANVTVTVLSTKQTEDYCLASNKVGRCAGSFPRWYYDPTEQICKSFVYGGCLGNKNNYLREEECILACRGVQGGPLRGSSGAQATFPQGPSMERRHPVCSGTCQPTQFRCSNGCCIDSFLECDDTPNCPDASDEAACEKYTSGFDELQRIHFPSDKGHCVDLPDTGLCKESIPRWYYNPFSEHCARFTYGGCYGNKNNFEEEQQCLESCRGISKKDVFGLRREIPIPSTGSVE

Experiments:
[1] = target: B2; assay: cell-based or functional assay
sHAI-1B(R260A) = target: B3; assay: incubation at 37 C, SDS-PAGE and immunoblot with anti-HAI-1B polyclonal antibody
Procedure: (§1) FIG. 2. […] Prostasin of indicated concentration was incubated with 20 nM wildtype sHAI-1B (A) or mutant sHAI-1B (B) at 37° C. for 0.5 or 2 h. The reactions were stopped by addition of SDS sample buffer with DTT. 30 μl of each sample was boiled or not boiled (as indicated) followed by immunoblotting analysis using anti-HAI-1B polyclonal antibody.
(§2) Prostasin was incubated with sHAI-1B comprising the entire extracellular domain of HAI-1B (Kirchhofer, Peek et al. 2003) at different molar ratios (FIG.2A).

sHAI-1B(K401A) = target: B1; assay: prostasin incubated with 20 nM mutant sHAI-1B, immunoblot (FIG. 2B)
Procedure: as §1, §2

aprotinin = aprotinin (UniProt P00974 36-93); assay: affinity chromatography of prostasin on immobilised aprotinin
[2] = target: B2; assay: cell-based or functional assay; remark: listed apart in the source

For B1, the “IC50 (nM), inhibition of prostasin amidolytic activity towards S2765” value [1] was 75.3 nM.

B2: no binding (sHAI-1B(R260A)); binds (sHAI-1B(K401A)); binds (aprotinin).

In the case of B3, the “IC50 (nM), inhibition of prostasin amidolytic activity towards S2765” value [1] is reported as over 1000 nM, the “fold less potent than wildtype sHAI-1B in the prostasin inhibition assay” value [2] is reported as at least 18 fold and the “inhibitory activity of KD2 relative to KD1 in prostasin enzymatic assays” value [2] is reported as under 6%.
